Experimental data taken from patent US20260274913A1 (Amgen, published 2026).

T1: cyno TREM-1 (cynomolgus monkey, UniProt A0A2K5VHG8 21-233)
T1 sequence: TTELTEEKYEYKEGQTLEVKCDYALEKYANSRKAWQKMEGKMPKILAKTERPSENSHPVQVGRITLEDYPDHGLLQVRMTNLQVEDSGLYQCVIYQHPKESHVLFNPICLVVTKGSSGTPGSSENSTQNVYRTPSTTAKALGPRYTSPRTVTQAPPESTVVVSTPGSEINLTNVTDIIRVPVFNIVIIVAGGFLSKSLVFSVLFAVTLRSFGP

T2: cyno TREM-1-His protein (cynomolgus monkey, UniProt A0A2K5VHG8 21-204)
T2 construct: extracellular domain; Soluble analyte of the Octet assay; not shown: His tag
T2 sequence: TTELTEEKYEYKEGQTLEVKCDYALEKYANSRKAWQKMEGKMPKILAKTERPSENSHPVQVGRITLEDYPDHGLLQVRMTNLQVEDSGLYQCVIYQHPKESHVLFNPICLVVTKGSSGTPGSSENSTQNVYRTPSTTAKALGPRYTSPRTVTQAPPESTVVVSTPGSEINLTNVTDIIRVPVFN


Experiments:
cyno TREM-1 = target: T1, cyno TREM-1; test: cell-based or functional assay
cyno TREM-1-His protein = target: T2, cyno TREM-1-His protein; test: BLI (Octet HTX), antibody captured on anti-human Fc sensor, cyno TREM-1-His as analyte, 1:1 model
Protocol: Briefly, TREM-1 hybridoma supernatants normalized to 10 μg/mL in DMEM null media were prepared by diluting 1:10 in OCTET® assay buffer (10 mM Tris, 0.1% Triton X-100, 150 mM NaCl, 1 mM CaCl₂), 0.1 mg/mL BSA, at pH 7.6) to a final test concentration of 1 μg/mL. Amine reactive second-generation AR2G Biosensors (Molecular Devices) were pre-incubated in 200 μL nanopore water for a minimum of 10 minutes at room temperature before use. The AR2G Biosensors were then activated for 5 minutes in a solution of 20 mM EDC (1-Ethyl-3-[3-dimethylaminopropyl]carbodiimide hydrochloride) (ForteBio) pre-mixed with 10 mM NHS (N-hydroxysulfosuccinimide) (ForteBio) in nanopore water. An in-house generated mouse anti-human Fc monoclonal antibody was coupled to the AR2G Biosensors at 10 μg/mL in 10 mM sodium acetate buffer at pH 5 for 5 minutes, quenched with 1M ethanolamine at pH 8.5 for 5 minutes, and then used to capture antibody from solution. The TREM-1 test antibodies were loaded onto the Biosensors for 5 minutes, and baseline measurements were taken for 1 minute. […] The association of recombinant human TREM-1 with the antibody-loaded sensor was measured for 5 minutes, followed by dissociation in OCTET® buffer for 10 minutes. Biosensors were then regenerated with 10 mM glycine at pH 1.7, reloaded with the same TREM-1 antibodies on the same sensors for 5 minutes, and the same method was used to measure association and dissociation of cyno TREM-1-His protein. Data was referenced using a 0 nM analyte reference sensor. Kinetic analysis was performed using a 1:1 Langmuir model with mass transfer in Genedata Screener software.

Ab IC50-Cyno PBMC (Trial 1), TNFα release induced by cyno PGLYRP1/PGN (cyno TREM-1) [nM]	Ab IC50-Cyno PBMC (Trial 2), TNFα release induced by cyno PGLYRP1/PGN (cyno TREM-1) [nM]	Kd (cyno TREM-1-His protein) [nM]	Binder
	2.34	1.31	61G5 (antibody, V domains shown) VH: QVQLVQSGAEVKKPGASVKVSCKASGYTFTSYDINWVRQATGQGLEWMGWMNPNSGNSGSVKKFRDRVTMTRNTSISTAYMELSSLRSEDTAVYYCVRLIGYSSAWKWSFQHWGQGTLVTVSS VL: DIQMTQSPSSLSASVGDRVTITCQASRDISKYLNWYQQKPGKAPKLQIYDASNLETGVPSRFSGSGSGTDFTFTISSLQPEDIATYYCQHYDNIPITFGQGTRLEIK
6.94	0.78	0.68	64D7 (antibody, V domains shown) VH: QVQLVQSGAEVKKPGASVKVSCKASGYTFTSYDINWVRQATGQGLEWMGWMNPNRGNTGYVKKFQGRVTMTRNTSISTAYMELSSLRSEDTAVYYCARRRAVYRSSWEWYFDLWGRGTLVTVSS VL: DTQMTQSPSSLSASEGDRVTITCQASQDIFNDLNWYQEKPGKAPKLLIYHASNLETGVPSRFSGSGSGTDYTFTISSLQPEDIATYYCQQYGNLPLTFGGGTKVEIK
2		6.42	50A12 (antibody, V domains shown) VH: EVQLVESGGGLVQPGGSLRLSCAASGFTFSSYWMSWVRQAPGKGLEWVANIKQDGSEEYYVDSVKGRFTISRDNAKNSLFLQMNSLRAEDTAVYYCARDYGDSFDYWGQGTLVTVSS VL: DIQMTQSPSSVSASVGDRVTITCRASQGIRKWLAWYQQKPGRAPKLLIYAASRLQSGVPSRFSGSGSGTDFTLTISSLRPEDFATYYCLQAHGFPWTFGQGTKVEIK
		< 0.29	57F5 (antibody, V domains shown) VH: EVQLLESGGGLVQPGGSLRLSCAASGFTFSSYAMTWVRQAPGRGLQWVSTISGSGSNTYYADSVKGRFTISRDNSKNTLYLQMSSLRAEDTAVYYCAKEGGSNRYFHHWGQGTLVTISS VL: DIQMTQSPSSLSASVGDRVTITCRASQSISSNLNWYQQKPGKAPKLLISAASNLQSGVPSRFSGSESGTDFTLTISSLQSEDFATYYCQQSDSLPLTFGGGTKVEIN
0.154	0.0284	1.28	57C10 (antibody, V domains shown) VH: QVQLVQSGAEVKKPGASVKVSCKASGYTFTRYDINWVRQATGQGLEWMGWLNPNSGNTGQTQKFRGRVTMTRNTSINTAYMELSSLRSEDTAVYYCARGGYTSAWRWYFDLWGRGTLVTVSS VL: DIQMTQSPSSLSASVGDRVTITCQASQDINNHLNWYQQKPGKAPKLLIYDVSNLETGVPSSFSGSGCGTDFTFTISSLQPEDIATYFCQQYDKLPLTFGGGTKVEIE
0.0226	0.0161	0.856	63F8 (antibody, V domains shown) VH: QVQLVQSGAEVKKPGASVKVSCKASGYTFTSYDINWVRQATGQGLEWMGRMNPKSGNAGYVQNFRGRVTMTRNTSISTAYMELSSLRSEDTAVYYCARGGRTSIWSFVFDYWGQGTLVTVSS VL: DIQMTQSPSSLSASVGDRVTITCQASQDISKHLNWYQQKPGKAPKLLIYDTSNLETGVPSRFSGSGSGTDFTFTISSLQPEDIATYNCQQYDKLPLTFGGGTKVEIK
0.0469	0.0174	1.27	61B12 (antibody, V domains shown) VH: QVQLVQSGAEVTKPGASVKVSCKASGYTFTRYDINWVRQATGQGLEWMGWMNPNSGNSGSVQKFRGRVTMTRNTSITTVYMELSSLRSDDTAVYYCARGGISSSWHWAFDIWGQGTMVTVSS VL: DIQMTQSPSSLSASVGDRVTITCQASQDINNHLNWYQQKPGKAPKLLIYGAYTLETGVPSRFSGSGSGTDFTFTISSLQPEDIATYYCQQYDKLPLTFGGGTKVEIK
0.114	0.0232	1.64	66B8 (antibody, V domains shown) VH: QVQLVQSGAEVKKPGASVKVSCKASGYTFTGYYMHWVRQAPGQGLEWMGWFKPNSGVTNYAQKFQGRVTMSRDTSISTAYMELSSLRSDDTAVYYCARAGYSTSWKDWFDPWGQGTLVTVSS VL: DIQMTQFPSSVSASVGDRVTITCRASQGISRWLAWYQQKQGKAPKLLIYMVSSLQSGVPSRFSGSGSGTDFTLTISSLQPEDFATYYCQQSHNFPITFGQGTRLDIK

Continued, binder first:

Binder	Ab IC50-Cyno PBMC (Trial 1), TNFα release induced by cyno PGLYRP1/PGN (cyno TREM-1) [nM]	Ab IC50-Cyno PBMC (Trial 2), TNFα release induced by cyno PGLYRP1/PGN (cyno TREM-1) [nM]	Kd (cyno TREM-1-His protein) [nM]
49A2 (antibody, V domains shown, also called 19333) VH: EVQLVESGGGLVQPGGSLRLSCAASGFTFSSNWMSWVRQAPGKGLDWMASMKQDGSEIYYVDSVKGRFTISRDNAKNSLHLQMNSLRAEDTAVYYCVRGGWRFESWGQGALVTVSS VL: EIVMTQSPATLSVSPGERATLSCRASQSVSSNLAWYQQKSGQAPRLLIYGASIRATGIPARVSGSGSGTEFTFTISSLQSEDFAVYYCQQYKNWPLTLGGGTKVEIK	0.732	0.266	1.87
30H2 (antibody, V domains shown, also called 19330) VH: EVQVLESGGGLVQPGESLRLSCTASGFTFNAYAMSWVRQAPGKGLEWVSTISGSGSTTYYADSVKGRFTISRDNSKNTLDLQMNSLRAADTAVYYCAKVAGSNFFFDHWGQGTLVTVSS VL: EIVMTQSPATLSVSPGERATLSCRASQSINSNLAWYQQKPGQAPRLLIYGAYTRATGIPDRFSGSGSGTEFTLTISSLQSEDFAVYYCQEFIMWPPWTFGLGTQVEIK	3.77		5.7
46H7 (antibody, V domains shown) VH: EVQLLESGGGMVQPGGSLRLSCAVSGFTFSRYAMSWVRQAPGKGLEWVSEMRGSSGSTYYADSVKGRFTISRDNSKNTLYLQMNSLRVEDTAIYYCAKEFSSNSLFDYWGQGTLVTVSS VL: EIVMTQSPATLSVSPGERATLSCRASQSVNSNLAWYQQKPGRAPRLLIYGASTRATGIPARFSGSGSGTEFTLTISSLQSEDFAVYYCQQFYNWPPWTFGQGTKVEIK	0.0951	0.0097	
3E12 (antibody, V domains shown) VH: QVQLVQSGAEVKKPGASVKVSCKASGYTFNGYYIHWVRQAPGQGLEWMGWLNPNSGGANYAQKFQGWVTMTRDTSISTAYMELSRLTSDDTAVYYCARDQRKTTVTPFEYWGQGTLVTVSS VL: SYELTQPPSVSVSPGQTASITCSGDKLGERNVCWYQLKPGQSPILVIYQDNKRPSGIPERFSGSKSGNTAILTISGTQAMDEADYYCQAWDRNVVFGGGTKLTVL			1.8
44A5 (antibody, V domains shown) VH: EVQLLESGGGLVQPGGSLRLSCAASGFTFSTYAMNWVRQAPGKGLEWVSTVSGSGRPTYYADSVKGRFTISRDNSKNTLYLQMNSLRAEDTAVYYCAKAYYSNYLFDYWGQGTLVTVSS VL: EIVMTQSPAILSVSPGERATLSCRASQSVSSNLAWYQQKPGQAPRLLIYGASTRATGVPARFSGGGSGTDFTLTISSLQSEDFAVYYCQHCKTWPPLTFGGGTKVDLK	0.0579	0.0091	2.02
34D1 (antibody, V domains shown) VH: QVQLVQSGAEVKKPGASVKVSCKASGYTFTRYDINWVRQATGQGLEWMGWMNPNSGNSGSVQKFRGRVTMTRNTSIHIAYMELSSLRSEDTAVYYCARGGYTSSWRWYFDLWGRGTLVTVSS VL: DIQMTQSPSSLSASVGDRVNITCQASQDIRKHLNWYQQKPGKAPNLLIYDAANLETGVPSRFSGSGSGTAFTFTISSLQPEDIATYYCQHYANLPITFGQGTRLEIK			4.97
